Results on one molecule are retold here after patent publication US20070015228A1.

The test has as its target normal human IgG (Zymed) (human). Nature of the test: ELISA, 8A3 coated on plate, anti-human IgG Fc-HRP detection.

B1: anti-idiotypic antibody 8A3 (antibody, V domains shown)
VH: QVQLQQSGAELAKPGASVKMSCKASGYNFTTYWMHWVKQRPGQGLEWIGYINPSTDYTEYNQKFKYKATLTADKSSSTAYIQLSSLTSEDSAVYYCARWWDYDWYFDVWGAGTPLTVSS
VL: DIVMTQSQEFMSTSVGDRVSVTCKASQTVDTNVAWYQQKLGQSPKPLIYSASYRCSGVPDRFTGSGSRTDFTLTITNVQSEDLAEYFCQQYHSFPWTFGGGTKVEIKR
With B1, the fold (binding to normal human IgG against humanized anti-CD20 IgG) is < 50000 fold.
